From publication PMC5137437
Read-outs that look alike come from different tables or passages of the source.

Experiments:
Klf4 ZnF1-3 E446P [1] = molecular target: T1, Klf4 ZnF1-3 E446P (Mus musculus, UniProt Q60793 396-483, E446P); experiment: fluorescence polarization
Klf4 ZnF1-3 WT (E446) [2] = molecular target: T2, Klf4 ZnF1-3 WT (E446) (Mus musculus, UniProt Q60793 396-483); experiment: X-ray crystallography
Klf4 ZnF1-3 E446P [3] = molecular target: T1, Klf4 ZnF1-3 E446P; experiment: X-ray crystallography
Klf4 ZnF1-3 WT (E446) [4] = molecular target: T2, Klf4 ZnF1-3 WT (E446); experiment: fluorescence polarization
Klf4 ZnF1-3 WT (E446) [5] = molecular target: T2, Klf4 ZnF1-3 WT (E446); experiment: X-ray crystallography; remark: listed apart in the source
Klf4 ZnF1-3 E446P [6] = molecular target: T1, Klf4 ZnF1-3 E446P; experiment: X-ray crystallography; remark: listed apart in the source
Klf4 ZnF1-3 E446D = Klf4 ZnF1-3 E446D (Mus musculus, UniProt Q60793 396-483, E446D); experiment: X-ray crystallography
Klf4 ZnF1-3 WT (E446) [7] = molecular target: T2, Klf4 ZnF1-3 WT (E446); experiment: fluorescence polarization; remark: listed apart in the source
Klf4 ZnF1-3 E446P [8] = molecular target: T1, Klf4 ZnF1-3 E446P; experiment: fluorescence polarization; remark: listed apart in the source

T1 sequence (Q60793 396-483 E446P): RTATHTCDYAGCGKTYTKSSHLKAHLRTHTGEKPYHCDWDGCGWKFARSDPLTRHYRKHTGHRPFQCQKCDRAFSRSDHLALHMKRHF
T2 sequence (Q60793 396-483): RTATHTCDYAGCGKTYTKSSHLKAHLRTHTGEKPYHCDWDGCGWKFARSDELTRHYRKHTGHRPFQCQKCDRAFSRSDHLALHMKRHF
Klf4 ZnF1-3 E446D, sequence (Q60793 396-483 E446D): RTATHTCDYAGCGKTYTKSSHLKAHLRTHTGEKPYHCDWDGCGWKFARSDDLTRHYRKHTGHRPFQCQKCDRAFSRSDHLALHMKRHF

B1: CpG unmodified FP probe (dsDNA)
DNA 1: GAGGCGTGGC
DNA 2: TTGCCACGCCTC
In the case of B1, the binding signal (Klf4 ZnF1-3 E446P [1]) is reported as ~4 fold tighter than P1 with N1.

B2: TpG/CpA crystal duplex (dsDNA)
DNA 1: GAGGTGTGGC
DNA 2: GCCACACCTC
B2: binds (Klf4 ZnF1-3 WT (E446) [2]).

B3: TpG crystal duplex (E446P complex) (dsDNA)
DNA 1: GAGGTGTGGC
DNA 2: GCCACACCTC
modifications: methylation of the opposite-strand CpA not stated in the material
B3: binds (Klf4 ZnF1-3 E446P [3]).

B4: TpG FP probe (dsDNA)
DNA 1: GAGGTGTGGC
DNA 2: TTGCCACACCTC
B4: binds (Klf4 ZnF1-3 WT (E446) [4]).

B5: TpG/5mCpA crystal duplex (dsDNA)
DNA 1: GAGGTGTGGC
DNA 2: GCCACACCTC
modifications: 5mC at position 5 of strand 2
B5: binds (Klf4 ZnF1-3 WT (E446) [5]).

B6: 5mCpG/5mCpG crystal duplex (dsDNA)
DNA 1: GAGGCGTGGC
DNA 2: GCCACGCCTC
modifications: 5mC at position 5 of strand 1 and position 5 of strand 2
B6: binds (Klf4 ZnF1-3 E446P [6]).

B7: CpG/CpG crystal duplex (dsDNA)
DNA 1: GAGGCGTGGC
DNA 2: GCCACGCCTC
B7: binds (Klf4 ZnF1-3 E446D).

B8: 5mCpG hemimethylated FP probe (dsDNA)
DNA 1: GAGGCGTGGC
DNA 2: TTGCCACGCCTC
modifications: 5mC at position 5 of strand 1; strand 2 unmethylated
For B8, the binding signal (Klf4 ZnF1-3 WT (E446) [7]) was 1.5 fold tighter than P1 with N1 and the Kd (Klf4 ZnF1-3 E446P [8]) was less than 5 nM.
